Test results as given in paper PMC2911679 (Biochemical Journal, 2010).

B1: His6-tagged GFP–SRY-HMG Y127C (SRY residues 55–141) (domain or fragment)
chain: not shown
B2: His6-tagged GFP–SRY-HMG M64T (SRY residues 55–141) (domain or fragment)
chain: not shown
B3: His6-tagged GFP–SRY-HMG R76P (SRY residues 55–141) (domain or fragment)
chain: not shown
B4: His6-tagged GFP–SRY-HMG F67V (SRY residues 55–141) (domain or fragment)
chain: not shown
B5: His6-tagged GFP–SRY-HMG, wild type (SRY residues 55–141) (domain or fragment)
chain: not shown

The binders below were run against biotinylated Impβ1 (GST-fusion protein, biotinylated with sulfo-NHS-biotin) (UniProt P70168 1-876, biotin (sulfo-NHS-biotin reagent; sites not stated)) (assay: AlphaScreen or HTRF).
biotinylated Impβ1 (GST-fusion protein, biotinylated with sulfo-NHS-biotin), sequence (P70168 whole entry, the tested form may be a part): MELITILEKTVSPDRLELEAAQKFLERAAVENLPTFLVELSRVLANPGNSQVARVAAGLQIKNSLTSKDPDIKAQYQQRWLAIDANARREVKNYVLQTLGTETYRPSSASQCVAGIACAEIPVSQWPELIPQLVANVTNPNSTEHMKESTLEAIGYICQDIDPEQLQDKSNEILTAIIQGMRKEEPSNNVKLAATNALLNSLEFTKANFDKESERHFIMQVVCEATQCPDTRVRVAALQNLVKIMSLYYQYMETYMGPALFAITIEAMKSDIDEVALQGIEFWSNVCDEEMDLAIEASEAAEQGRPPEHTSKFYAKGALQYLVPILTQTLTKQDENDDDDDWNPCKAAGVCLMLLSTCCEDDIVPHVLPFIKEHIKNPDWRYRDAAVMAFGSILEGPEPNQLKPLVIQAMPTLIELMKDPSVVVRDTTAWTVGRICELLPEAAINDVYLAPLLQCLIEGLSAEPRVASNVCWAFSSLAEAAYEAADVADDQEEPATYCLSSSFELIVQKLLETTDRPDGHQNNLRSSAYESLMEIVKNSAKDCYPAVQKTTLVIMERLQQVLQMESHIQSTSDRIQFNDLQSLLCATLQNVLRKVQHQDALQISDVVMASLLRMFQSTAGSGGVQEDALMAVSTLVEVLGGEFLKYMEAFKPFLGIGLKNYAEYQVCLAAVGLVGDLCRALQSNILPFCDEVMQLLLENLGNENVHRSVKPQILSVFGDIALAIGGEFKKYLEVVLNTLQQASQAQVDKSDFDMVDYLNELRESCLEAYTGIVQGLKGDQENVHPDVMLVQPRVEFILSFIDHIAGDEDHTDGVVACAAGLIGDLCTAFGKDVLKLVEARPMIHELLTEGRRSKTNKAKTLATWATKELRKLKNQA

| Kd [nM] | Binder |
| --- | --- |
| 3.6 | B1 |
| 1.42 | B2 |
| 0.89 | B3 |
| 1.09 | B4 |
| 0.94 | B5 |

What follows are binders tested against biotin-labelled calmodulin (CaM) (UniProt P0DP23 1-149, biotin (site not stated)) (assay: AlphaScreen or HTRF).

| Kd [nM] | Binder |
| --- | --- |
| 0.62 | B1 |
| 0.43 | B5 |
